Reference: PMC12148588 (eBioMedicine, 2025)

Target: T1, SARS-CoV-2 RBD of the VOC Delta (Acro Biosystems SPD-C82Ed-25) (SARS-CoV-2, VOC Delta (B.1.617.2), strain)
T1 construct: source: bought: Acro Biosystems
Experiment: SPR; Biacore 8K+, […]; 10 mM HEPES pH 7.4, 150 mM NaCl, 3 mM EDTA, 0.05% Tween 20; […]
Conditions: both partners purified

B1: MB025_A09Lgl (antibody, V domains shown)
VH: EVQLVESGGGLVQPGGSLRLSCAASGFTVSSNYMSWVRQAPGKGLEWVSVIYSGGSTYYADSVKGRFTISRHNSKNTLYLQMNSLRAEDTAVYYCARGVDYRTNRTEGGAFDIWGQGTMVTVSS
VL: QSALTQPASVSGSPGQSITISCTGTSSDVGSYNLVSWYQQHPGKAPKLMIYEGSKRPSGVSNRFSGSKSGNTASLTISGLQAEDEADYYCCSYAGSSTWMFGGGTKLTVL
Kd: 731 nM
